From patent EP3831849A1 (LamKap Bio beta AG, dated 2021)
Changes are numbered by the printed parent chain. One block for each binder: values may come before it.

How the values were obtained:
[1] = target: T1, human CEACAM5 expressed on MKN-45 wt cells (human, UniProt P06731 35-702); test: flow cytometry on MKN-45 wt cells (express CEACAM5 and CD47)
T1 construct: MKN-45 cells also express CD47 and CEACAM6; also called CEACAM5 on MKN45
T1 sequence: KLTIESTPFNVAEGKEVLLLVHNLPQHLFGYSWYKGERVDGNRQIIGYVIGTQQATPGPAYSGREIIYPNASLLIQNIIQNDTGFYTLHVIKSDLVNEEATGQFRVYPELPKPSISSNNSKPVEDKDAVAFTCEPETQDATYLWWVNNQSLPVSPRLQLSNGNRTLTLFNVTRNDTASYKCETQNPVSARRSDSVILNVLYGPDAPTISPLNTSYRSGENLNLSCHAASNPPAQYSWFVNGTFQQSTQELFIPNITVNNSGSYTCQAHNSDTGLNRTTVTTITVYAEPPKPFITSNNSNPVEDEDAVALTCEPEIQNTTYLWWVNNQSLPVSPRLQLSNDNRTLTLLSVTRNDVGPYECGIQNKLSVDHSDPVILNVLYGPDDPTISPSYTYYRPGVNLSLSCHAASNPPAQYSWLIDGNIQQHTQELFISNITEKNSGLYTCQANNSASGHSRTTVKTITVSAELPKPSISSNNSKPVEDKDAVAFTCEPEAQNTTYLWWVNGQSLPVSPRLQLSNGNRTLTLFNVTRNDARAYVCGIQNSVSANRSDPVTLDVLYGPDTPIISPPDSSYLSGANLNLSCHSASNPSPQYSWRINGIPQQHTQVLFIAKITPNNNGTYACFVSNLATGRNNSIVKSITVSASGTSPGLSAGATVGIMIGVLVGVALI

[2] = target: T2, human CD47 expressed at the surface of MKN45 cells (human, UniProt Q08722 19-323); test: inhibition of SIRPα mouseFc binding to CD47 on MKN45 cells; imaging (CX5)
T2 construct: whole, on cells; also called IAP

[3] = target: T3, biotinylated recombinant human CEACAM5 (human, UniProt P06731 35-685, biotin on the C-terminal Avitag); test: ELISA; biotinylated recombinant protein on streptavidin plate; bivalent mAb titrated
T3 construct: also called CD66e; not shown: C-terminal Avitag plus hexa-histidine tag, human Fc or mouse Fc
T3 sequence: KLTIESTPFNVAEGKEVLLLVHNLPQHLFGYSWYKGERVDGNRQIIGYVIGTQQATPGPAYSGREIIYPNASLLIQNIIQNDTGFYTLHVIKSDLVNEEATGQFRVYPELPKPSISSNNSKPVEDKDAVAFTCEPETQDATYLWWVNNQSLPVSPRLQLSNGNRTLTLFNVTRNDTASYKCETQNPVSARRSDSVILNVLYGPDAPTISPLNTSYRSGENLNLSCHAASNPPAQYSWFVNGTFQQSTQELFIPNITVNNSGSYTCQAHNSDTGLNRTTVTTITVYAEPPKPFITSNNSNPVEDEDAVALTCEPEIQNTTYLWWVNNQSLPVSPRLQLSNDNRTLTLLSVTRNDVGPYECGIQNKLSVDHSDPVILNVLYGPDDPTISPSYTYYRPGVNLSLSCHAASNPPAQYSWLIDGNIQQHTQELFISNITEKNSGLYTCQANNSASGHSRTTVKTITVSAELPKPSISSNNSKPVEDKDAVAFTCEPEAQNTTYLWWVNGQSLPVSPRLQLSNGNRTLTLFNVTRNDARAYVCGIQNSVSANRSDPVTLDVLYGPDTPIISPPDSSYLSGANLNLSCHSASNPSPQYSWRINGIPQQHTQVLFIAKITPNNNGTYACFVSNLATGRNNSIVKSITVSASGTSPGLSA

[4] = target: T4, recombinant cynomolgus monkey CEACAM5 (cynomolgus monkey (macaca fascicularis)); test: as above
T4 construct: also called cyno CEACAM5; cynomolgus CEACAM5

T2 sequence (Q08722 19-323): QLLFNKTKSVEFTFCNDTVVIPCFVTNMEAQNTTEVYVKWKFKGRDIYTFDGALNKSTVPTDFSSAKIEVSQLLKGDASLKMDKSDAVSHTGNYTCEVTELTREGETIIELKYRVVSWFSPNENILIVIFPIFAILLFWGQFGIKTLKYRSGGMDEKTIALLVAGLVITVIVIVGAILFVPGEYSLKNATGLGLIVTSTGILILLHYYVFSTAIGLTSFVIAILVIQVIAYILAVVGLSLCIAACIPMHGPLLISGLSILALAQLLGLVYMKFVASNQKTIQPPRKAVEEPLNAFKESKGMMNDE

B1: K2AC41 (bispecific antibody, human IgG1, kappa, lambda)
heavy: not shown
light 1: DIQMTQSPSSLSASVGDRVTITCQASQEIAATLNWYQQKPGKAPKLLIYNYSTLETGVPSRFSGSGSGTDFTFTISSLQPEDIATYYCQQVGLNPENTTFGGGTKLTVLGQPKAAPSVTLFPPSSEELQANKATLVCLISDFYPGAVTVAWKADSSPVKAGVETTTPSKQSNNKYAASSYLSLTPEQWKSHRSYSCQVTHEGSTVEKTVAPTECS
light 2: not shown
notes: 6 is full length; CEACAM arm light chain hybrid (VK + lambda CL), CD47 arm (K2) fully kappa
EC50 [1]: 145 nM
Emax (MFI) [1]: 1.41e+06 MFI
IC50 [2]: 3.7 nM

B2: K2AC43 (bispecific antibody, human IgG1, kappa, lambda)
heavy: not shown
light 1: B1 light 1 with E28N, A30P, A31R, L33I, N50D, Y51I, T53N, N97L
light 2: not shown
notes: 6 is full length; CEACAM arm light chain hybrid, CD47 arm fully kappa
EC50 [1]: 135 nM
Emax (MFI) [1]: 1.77e+06 MFI
IC50 [2]: 3.9 nM

B3: K2AC42 (bispecific antibody, human IgG1, kappa, lambda)
heavy: not shown
light 1: B1 light 1 with E28R, A31R, Y51F, T53A, N94D, E96N, N97L
light 2: not shown
notes: as for B2
EC50 [1]: 123 nM
Emax (MFI) [1]: 1.52e+06 MFI
IC50 [2]: 2.9 nM

B4: AC43 (antibody, human IgG1, kappa, V domains shown)
VH: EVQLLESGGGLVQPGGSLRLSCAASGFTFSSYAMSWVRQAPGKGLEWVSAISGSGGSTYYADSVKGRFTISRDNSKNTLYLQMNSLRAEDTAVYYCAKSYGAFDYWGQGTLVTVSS
VL: DIQMTQSPSSLSASVGDRVTITCQASQNIPRTINWYQQKPGKAPKLLIYDISNLETGVPSRFSGSGSGTDFTFTISSLQPEDIATYYCQQVGLNPELTTFGQGTKVEIKR
notes: Bivalent IgG1 mAb; 6 carries the IgG1 Fc
EC50 [3]: 0.08 nM
EC50 [4]: 0.7 nM

B11: AC42 (antibody, human IgG1, kappa, V domains shown)
VH: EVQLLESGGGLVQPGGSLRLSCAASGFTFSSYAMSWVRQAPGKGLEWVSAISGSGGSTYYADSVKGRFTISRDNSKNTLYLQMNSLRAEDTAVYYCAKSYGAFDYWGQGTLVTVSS
VL: B4 VL with N28R, P30A, I33L, D50N, I51F, N53A, N94D, E96N
notes: as for B4
EC50 [3]: 0.1 nM
EC50 [4]: 0.6 nM

B12: AC41 (antibody, human IgG1, kappa, V domains shown)
VH: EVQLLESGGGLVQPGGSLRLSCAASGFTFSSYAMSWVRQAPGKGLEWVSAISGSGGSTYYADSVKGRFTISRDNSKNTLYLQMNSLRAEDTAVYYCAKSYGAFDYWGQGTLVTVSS
VL: B4 VL with N28E, P30A, R31A, I33L, D50N, I51Y, N53T, L97N
notes: as for B4
EC50 [3]: 0.3 nM
EC50 [4]: 0.6 nM

B14: AC58 (antibody, human IgG1, lambda, V domains shown)
VH: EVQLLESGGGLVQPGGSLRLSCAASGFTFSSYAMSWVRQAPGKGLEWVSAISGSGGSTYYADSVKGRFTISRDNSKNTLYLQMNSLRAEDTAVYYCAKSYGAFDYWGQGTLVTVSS
VL: QSVLTQPPSVSGAPGQRVTISCTGSSSNIGVAHDVHWYQQLPGTAPKLLIYDYSERPSGVPDRFSGSKSGTSASLAITGLQAEDEADYYCQSWDNGPNGLVWVFGGGTKLTVLG
notes: Bivalent IgG1 mAb derived from AC21 by lead optimization; 6 carries the IgG1 Fc)
EC50 [3]: 0.04 nM
EC50 [4]: 0.04 nM

B16: K2AC58 (bispecific antibody, human IgG1, kappa, lambda)
heavy: not shown
light 1: QSVLTQPPSVSGAPGQRVTISCTGSSSNIGVAHDVHWYQQLPGTAPKLLIYDYSERPSGVPDRFSGSKSGTSASLAITGLQAEDEADYYCQSWDNGPNGLVWVFGGGTKLTVLGQPKAAPSVTLFPPSSEELQANKATLVCLISDFYPGAVTVAWKADSSPVKAGVETTTPSKQSNNKYAASSYLSLTPEQWKSHRSYSCQVTHEGSTVEKTVAPTECS
light 2: not shown
EC50 [1]: 20 nM
Emax (MFI) [1]: 300000 MFI

B17: K2AC59 (bispecific antibody, human IgG1, kappa, lambda)
heavy: not shown
light 1: B16 light 1 with G96S, P97E, V101I, W102Y
light 2: not shown
EC50 [1]: 26 nM
Emax (MFI) [1]: 400000 MFI

B18: AC41K2 H-CL1 (bispecific antibody, human IgG1, kappa, lambda)
heavy: not shown
light 1: not shown
light 2: DIQMTQSPSSLSASVGDRVTITCRASQSISSYLNWYQQKPGKAPKLLIYAASSLQSGVPSRFSGSGSGTDFTLTISSLQPEDFATYYCQQMHPRAPKTFGGGTKLTVLGQPKAAPSVTLFPPSSEELQANKATLVCLISDFYPGAVTVAWKADSSPVKAGVETTTPSKQSNNKYAASSYLSLTPEQWKSHRSYSCQVTHEGSTVEKTVAPTECS
notes: CEACAM5xCD47 κλ body, IgG1, common heavy chain
EC50 [1]: 146 nM
Emax (MFI) [1]: 1.52e+06 MFI
IC50 [2]: 6.8 nM

B19: AC42K2 H-CL1 (bispecific antibody, human IgG1, kappa, lambda)
heavy: not shown
light 1: not shown
light 2: B18 light 2
notes: CEACAM5xCD47 κλ body, IgG1, common heavy chain; CEACAM arm light chain fully kappa, CD47 arm light chain hybrid
EC50 [1]: 129 nM
Emax (MFI) [1]: 1.84e+06 MFI

B20: AC43K2 H-CL1 (bispecific antibody, human IgG1, kappa, lambda)
heavy: not shown
light 1: not shown
light 2: B18 light 2
notes: as for B19
EC50 [1]: 121 nM
Emax (MFI) [1]: 2.08e+06 MFI
IC50 [2]: 3.2 nM

B21: AC54 (antibody, human IgG1, lambda, V domains shown)
VH: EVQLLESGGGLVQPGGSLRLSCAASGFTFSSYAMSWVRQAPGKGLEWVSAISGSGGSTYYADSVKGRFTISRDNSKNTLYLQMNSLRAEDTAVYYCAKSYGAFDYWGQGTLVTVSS
VL: QSVLTQPPSVSGAPGQRVTISCTGSSSNIHDVGYVHWYQQLPGTAPKLLIYGASGRPSGVPDRFSGSKSGTSASLAITGLQAEDEADYYCQSYDTRQVVPTPVFGGGTKLTVLG
notes: Bivalent IgG1 mAb; 6 carries the IgG1 Fc; also called CEACAM5 mAb AC54
EC50 [3]: 0.03 nM
EC50 [4]: 0.02 nM

B27: AC45 (antibody, human IgG1, lambda, V domains shown)
VH: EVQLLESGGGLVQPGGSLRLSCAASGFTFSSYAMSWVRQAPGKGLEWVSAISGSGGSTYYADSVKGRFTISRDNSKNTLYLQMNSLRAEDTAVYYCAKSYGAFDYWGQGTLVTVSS
VL: QSVLTQPPSASGTPGQRVTISCSGSSSNIVGVGVNWYQQLPGTAPKLLIYSYNKRPSGVPDRFSGSKSGTSASLAISGLQSEDEADYYCAAYDADMIVPAPVFGGGTKLTVLG
notes: as for B4
EC50 [3]: 0.1 nM
EC50 [4]: 0.03 nM

B28: AC44 (antibody, human IgG1, lambda, V domains shown)
VH: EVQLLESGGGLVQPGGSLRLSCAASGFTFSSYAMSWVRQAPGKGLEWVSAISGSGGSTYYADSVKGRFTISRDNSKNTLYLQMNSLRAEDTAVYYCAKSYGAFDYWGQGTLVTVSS
VL: B27 VL with A94F, D95L, M96P, I97V, V98L
notes: as for B4
EC50 [3]: 0.09 nM
EC50 [4]: 0.07 nM

B29: AC46 (antibody, human IgG1, lambda, V domains shown)
VH: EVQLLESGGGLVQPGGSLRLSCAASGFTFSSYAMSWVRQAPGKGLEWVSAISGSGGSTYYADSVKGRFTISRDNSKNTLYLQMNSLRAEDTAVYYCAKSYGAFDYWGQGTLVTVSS
VL: B27 VL with A94F, D95S, M96L, I97L, V98L
notes: as for B4
EC50 [3]: 0.07 nM
EC50 [4]: 0.04 nM

Other lines, results leading:

EC50 [3]: 0.016 nM
EC50 [4]: 0.03 nM
B5: AC64 (antibody, human IgG1, kappa, V domains shown)
VH: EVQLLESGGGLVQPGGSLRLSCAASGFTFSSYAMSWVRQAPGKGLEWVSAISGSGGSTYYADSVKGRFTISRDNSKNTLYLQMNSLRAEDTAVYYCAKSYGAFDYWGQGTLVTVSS
VL: B4 VL with G92T, N94E, L97E, T98L
notes: as for B4

EC50 [3]: 0.013 nM
EC50 [4]: 0.06 nM
B6: AC60 (antibody, human IgG1, kappa, V domains shown)
VH: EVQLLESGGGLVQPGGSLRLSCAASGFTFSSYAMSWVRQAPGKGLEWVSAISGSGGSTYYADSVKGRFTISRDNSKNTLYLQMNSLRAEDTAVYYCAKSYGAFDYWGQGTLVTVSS
VL: B4 VL with P95W, E96D, L97D, T98R, T99A
notes: Bivalent IgG1 mAb; 6 carries the IgG1 Fc; 167 is the one used in the embodiments

EC50 [3]: 0.008 nM
EC50 [4]: 0.02 nM
B7: AC61 (antibody, human IgG1, kappa, V domains shown)
VH: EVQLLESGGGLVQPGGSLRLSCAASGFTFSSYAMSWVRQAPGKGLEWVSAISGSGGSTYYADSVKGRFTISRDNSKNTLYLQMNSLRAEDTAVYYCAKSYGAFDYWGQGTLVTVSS
VL: B4 VL with G92T, N94D, L97E, T98M
notes: as for B4

EC50 [3]: 0.014 nM
EC50 [4]: 0.03 nM
B8: AC65 (antibody, human IgG1, kappa, V domains shown)
VH: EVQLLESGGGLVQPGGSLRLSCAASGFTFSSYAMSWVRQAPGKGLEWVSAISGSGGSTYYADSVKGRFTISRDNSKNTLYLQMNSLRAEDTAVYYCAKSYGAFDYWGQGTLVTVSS
VL: B4 VL with Q89G, Q90S, G92T
notes: as for B4

EC50 [3]: 0.012 nM
EC50 [4]: 0.01 nM
B9: AC66 (antibody, human IgG1, kappa, V domains shown)
VH: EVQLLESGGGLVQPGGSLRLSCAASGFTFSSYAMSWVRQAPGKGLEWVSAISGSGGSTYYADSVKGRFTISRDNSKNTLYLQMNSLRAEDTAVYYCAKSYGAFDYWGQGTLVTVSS
VL: B4 VL with G92T, N94D, L97E, T98N
notes: as for B4

EC50 [3]: 0.012 nM
EC50 [4]: 0.01 nM
B10: AC62 (antibody, human IgG1, kappa, V domains shown)
VH: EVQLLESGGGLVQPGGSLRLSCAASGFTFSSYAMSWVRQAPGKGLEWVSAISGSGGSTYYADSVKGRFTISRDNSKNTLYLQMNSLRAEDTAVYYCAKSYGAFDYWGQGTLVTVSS
VL: B4 VL with G92T, N94E
notes: as for B4

EC50 [3]: 0.016 nM
EC50 [4]: 0.02 nM
B13: AC63 (antibody, human IgG1, kappa, V domains shown)
VH: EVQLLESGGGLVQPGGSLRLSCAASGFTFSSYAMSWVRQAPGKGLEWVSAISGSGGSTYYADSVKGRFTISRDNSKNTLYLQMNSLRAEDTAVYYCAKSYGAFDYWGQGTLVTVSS
VL: B4 VL with Q90S, G92T, N94W
notes: as for B4

EC50 [3]: 0.05 nM
EC50 [4]: 0.05 nM
B15: AC59 (antibody, human IgG1, lambda, V domains shown)
VH: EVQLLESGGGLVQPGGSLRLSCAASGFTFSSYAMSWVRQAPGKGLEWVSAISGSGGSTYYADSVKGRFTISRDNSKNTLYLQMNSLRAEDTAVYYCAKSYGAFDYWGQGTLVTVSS
VL: B14 VL with G96S, P97E, V101I, W102Y
notes: as for B14

EC50 [3]: 0.01 nM
EC50 [4]: 0.02 nM
B22: AC57 (antibody, human IgG1, lambda, V domains shown)
VH: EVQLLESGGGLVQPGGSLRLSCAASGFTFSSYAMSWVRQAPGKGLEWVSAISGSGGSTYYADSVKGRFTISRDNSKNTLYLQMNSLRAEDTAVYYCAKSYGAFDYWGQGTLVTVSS
VL: B21 VL with H30I, D31N, V32N, G33S, G52A, A53P, G55N, Q97F
notes: as for B4

EC50 [3]: 0.03 nM
EC50 [4]: 0.02 nM
B23: AC52 (antibody, human IgG1, lambda, V domains shown)
VH: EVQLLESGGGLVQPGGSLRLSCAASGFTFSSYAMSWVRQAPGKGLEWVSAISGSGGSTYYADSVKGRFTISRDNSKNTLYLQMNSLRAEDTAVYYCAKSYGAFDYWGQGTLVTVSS
VL: B21 VL with R96K, Q97R, V98E, V99F
notes: as for B4

EC50 [3]: 0.03 nM
EC50 [4]: 0.02 nM
B24: AC53 (antibody, human IgG1, lambda, V domains shown)
VH: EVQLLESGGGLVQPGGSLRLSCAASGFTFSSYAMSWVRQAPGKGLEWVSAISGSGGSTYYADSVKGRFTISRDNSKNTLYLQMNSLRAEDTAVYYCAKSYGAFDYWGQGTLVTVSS
VL: B21 VL with T95G, Q97A, V99F
notes: as for B4

EC50 [3]: 0.03 nM
EC50 [4]: 0.02 nM
B25: AC55 (antibody, human IgG1, lambda, V domains shown)
VH: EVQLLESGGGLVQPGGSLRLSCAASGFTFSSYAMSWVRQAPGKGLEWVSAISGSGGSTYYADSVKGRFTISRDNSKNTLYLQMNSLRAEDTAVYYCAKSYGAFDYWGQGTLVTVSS
VL: B21 VL with R96S, Q97A, V99F
notes: as for B4

EC50 [3]: 0.02 nM
EC50 [4]: 0.02 nM
B26: AC56 (antibody, human IgG1, lambda, V domains shown)
VH: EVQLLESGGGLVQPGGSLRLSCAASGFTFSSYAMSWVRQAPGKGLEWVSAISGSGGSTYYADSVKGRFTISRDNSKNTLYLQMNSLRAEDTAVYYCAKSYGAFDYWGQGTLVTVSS
VL: B21 VL with H30I, D31N, V32N, G33S, G52A, A53P, G55N, R96T, Q97G, V99M
notes: as for B4

EC50 [3]: 0.05 nM
EC50 [4]: 0.04 nM
B30: AC48 (antibody, human IgG1, lambda, V domains shown)
VH: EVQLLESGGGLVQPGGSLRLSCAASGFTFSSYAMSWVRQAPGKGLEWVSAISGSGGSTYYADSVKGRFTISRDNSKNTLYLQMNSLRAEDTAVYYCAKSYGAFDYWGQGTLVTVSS
VL: B27 VL with V30N, S51E, Y52F, D95A, M96R, I97Y
notes: as for B4

EC50 [3]: 0.03 nM
EC50 [4]: 0.06 nM
B31: AC47 (antibody, human IgG1, lambda, V domains shown)
VH: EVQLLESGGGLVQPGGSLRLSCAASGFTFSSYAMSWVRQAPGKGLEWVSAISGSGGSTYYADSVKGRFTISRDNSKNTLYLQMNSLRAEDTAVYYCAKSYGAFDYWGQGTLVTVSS
VL: B27 VL with V30N, S51G, Y52F, K54S, A94M, D95S, M96T, I97Y
notes: as for B4
